# The supplement of paper PMC10126150
# ± gives the standard deviation of the averaged measurements.
# System: ATP
# Test: switch fluorescence ratio, 500 uM ATP over buffer (Cy3 cluster intensity, sum of 5 cycles each) (fold (ratio)); higher = stronger signal-on switching upon ATP binding; sequences stand for … in TCGTCGGCAGCGTCAGATGTGTATAAGAGACAGTTTTTTTTTTTTTTTTTTTTTTTTT…TC
# Details: aptamer strand: ATP DNA aptamer (quencher-CACCTGGGGGAGTATTGCGGAGGAAGG + anchor), 100 nM annealed; ATP concentration: 500 uM
# Procedure, shortened: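 Clusters with intensities outside 100-1000 RFU were excluded. The remaining Cy3-labelled switching-strand clusters on a modified Illumina MiSeq flow-cell had been annealed to 100 nM quencher-labelled ATP aptamer and imaged in selection buffer, then after 15 min with 500 uM ATP at 22 °C, for five cycles separated by NaOH stripping and re-annealing. The fluorescence ratio, averaged per switch-domain sequence, is each cluster's summed target-cycle Cy3 intensity over its summed buffer-cycle Cy3 intensity.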
# 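Also: ATP exposure 15 min at 22 °C before imaging.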
sequence,measurement,value
ATTGATTGCT,switch fluorescence ratio,0.9989 ± 0.0036
TTGAATGGGG,switch fluorescence ratio,1.05 ± 0.043
TTTCGTGTGA,switch fluorescence ratio,1.015 ± 0.0062
GAAAAGTATC,switch fluorescence ratio,1.001 ± 0.0022
TTGATAAAGT,switch fluorescence ratio,0.997 ± 0.0043
ATGGGGATTT,switch fluorescence ratio,0.991 ± 0.01
GTGATAGATG,switch fluorescence ratio,1.013 ± 0.01
TTGTTAGGGC,switch fluorescence ratio,1.07 ± 0.017
CCACGCGGCA,switch fluorescence ratio,1.19 ± 0.091
GAAGGGCAGT,switch fluorescence ratio,0.966 ± 0.029
CATGAATCTA,switch fluorescence ratio,0.98017 ± 0.00042
TTGATTTAAA,switch fluorescence ratio,1.01 ± 0.0047
TATTTTTCCG,switch fluorescence ratio,1.03 ± 0.012
TGTTCTGCGA,switch fluorescence ratio,1.43 ± 0.54
GCCTCACCCG,switch fluorescence ratio,1.26 ± 0.016
TGCCGGGGTT,switch fluorescence ratio,1.1 ± 0.2
AACGGTACCG,switch fluorescence ratio,0.981 ± 0.014
AGTATATGTG,switch fluorescence ratio,0.955 ± 0.023
CAGATGATAT,switch fluorescence ratio,0.992 ± 0.047
AAGACGTCAC,switch fluorescence ratio,1.91 ± 0.14
GAAAAATGCC,switch fluorescence ratio,1.05 ± 0.05
GGAGGTGGGT,switch fluorescence ratio,1.01 ± 0.03
ATAAGGGTTT,switch fluorescence ratio,0.9905 ± 0.0095
CACAGTGAAG,switch fluorescence ratio,0.985 ± 0.051
TAACTGTGAT,switch fluorescence ratio,0.988 ± 0.025
GTAATAAGGG,switch fluorescence ratio,1.04 ± 0.041
GCTGAAGGTT,switch fluorescence ratio,1.25 ± 0.36
CCTGGCGGCT,switch fluorescence ratio,1.06 ± 0.018
TATACAGCGA,switch fluorescence ratio,1.0822 ± 0.00025
TGGGTGGTGC,switch fluorescence ratio,0.965 ± 0.011
GAGAGCAAGT,switch fluorescence ratio,1.14 ± 0.034
CAAGGGTGGC,switch fluorescence ratio,1.003 ± 0.0061
TTAGGGAAAA,switch fluorescence ratio,0.983 ± 0.038
CTTGGGGGGA,switch fluorescence ratio,0.997 ± 0.029
GGGTTGGGCT,switch fluorescence ratio,1 ± 0.03
TAAGTGTAGC,switch fluorescence ratio,1.035 ± 0.0035
GAGGGGGCGC,switch fluorescence ratio,1.02 ± 0.031
ATGGGCTGAA,switch fluorescence ratio,1.021 ± 0.0092
TAAACGAGGG,switch fluorescence ratio,1.01 ± 0.014
TGCATCATAA,switch fluorescence ratio,1.01 ± 0.024
TACAGCTTCT,switch fluorescence ratio,1.005 ± 0.0065
GGGGGAGTCG,switch fluorescence ratio,1.02 ± 0.048
CAGTAAGAGC,switch fluorescence ratio,0.935 ± 0.0095
CGTTTCGCAG,switch fluorescence ratio,1.03 ± 0.068
GAAGATAGGT,switch fluorescence ratio,0.993 ± 0.03
CAGGGCGGGC,switch fluorescence ratio,0.84 ± 0.073
AAAATGTTTC,switch fluorescence ratio,1.02 ± 0.02
TTATAGCCCA,switch fluorescence ratio,1.0151 ± 0.00025
TTTATTAGTT,switch fluorescence ratio,0.998 ± 0.025
ACCCTCGGGG,switch fluorescence ratio,1.0015 ± 0.00096
GTGACTTTGT,switch fluorescence ratio,1 ± 0.023
CGAACTCCTG,switch fluorescence ratio,1.05 ± 0.014
TCCAAAGAGG,switch fluorescence ratio,0.997 ± 0.018
GTGTTAAGGA,switch fluorescence ratio,0.995 ± 0.02
TGCAACGTAT,switch fluorescence ratio,1.13 ± 0.19
AGTAAAAAGT,switch fluorescence ratio,1.02 ± 0.026
TGGGACGCCT,switch fluorescence ratio,1.06 ± 0.14
AGGGGATATT,switch fluorescence ratio,0.996 ± 0.01
GGTCGTAGAT,switch fluorescence ratio,1.01 ± 0.036
TTATGGGGGA,switch fluorescence ratio,1.01 ± 0.018
AGTTAAAGAG,switch fluorescence ratio,1.01 ± 0.021
TGTAGTAACG,switch fluorescence ratio,0.982 ± 0.012
CAATCTACGC,switch fluorescence ratio,1.11 ± 0.038
TATTTTGGCC,switch fluorescence ratio,1.02 ± 0.04
TATTGAGAAG,switch fluorescence ratio,0.987 ± 0.025
TTTTCAAGGT,switch fluorescence ratio,0.992 ± 0.019
ACTTGTTTTT,switch fluorescence ratio,0.99 ± 0.033
ACATTGGTGG,switch fluorescence ratio,0.993 ± 0.026
TTCGCTACGT,switch fluorescence ratio,1.02 ± 0.021
GGAGTTAGGA,switch fluorescence ratio,0.9866 ± 0.0098
ATATCTCGAG,switch fluorescence ratio,0.981 ± 0.02
TTAGGGGATT,switch fluorescence ratio,1.01 ± 0.027
TAGCATGTAC,switch fluorescence ratio,5.22 ± 0.65
GGTTTAGGCC,switch fluorescence ratio,0.991 ± 0.03
TAGTAATGTT,switch fluorescence ratio,0.982 ± 0.025
AACGCCGCAT,switch fluorescence ratio,1.858 ± 0.0036
TATTGACAA,switch fluorescence ratio,1.02 ± 0.019
GGTGCGGGAC,switch fluorescence ratio,1.16 ± 0.12
ATGGGAGAAT,switch fluorescence ratio,0.9801 ± 0.009
TGTAGGACGG,switch fluorescence ratio,1.09 ± 0.094
AGACGGACGT,switch fluorescence ratio,1.05 ± 0.013
CGTTTTCCAG,switch fluorescence ratio,0.985 ± 0.03
TGAAGGGGGG,switch fluorescence ratio,0.984 ± 0.034
ATGAAAAGGA,switch fluorescence ratio,0.97123 ± 0.00096
CGTGGCCTGG,switch fluorescence ratio,0.994 ± 0.024
AAGGTATGCT,switch fluorescence ratio,0.982 ± 0.019
ATGGATTTGC,switch fluorescence ratio,1.02 ± 0.081
GGCTTCTGGG,switch fluorescence ratio,0.98911 ± 0.00037
TGTTGAATGT,switch fluorescence ratio,1.02 ± 0.03
GGACAGGTTT,switch fluorescence ratio,0.9784 ± 0.0034
GATTTTTGTG,switch fluorescence ratio,0.992 ± 0.018
CCATATAGAG,switch fluorescence ratio,1.02 ± 0.027
CAGCGTATCA,switch fluorescence ratio,1.01 ± 0.0018
ATGAAGGCGG,switch fluorescence ratio,1.05 ± 0.068
TCGAAGAGCG,switch fluorescence ratio,0.976 ± 0.045
TTATACGGAA,switch fluorescence ratio,1.11 ± 0.057
GTAGGGATGG,switch fluorescence ratio,1.03 ± 0.013
ACGATTTGGT,switch fluorescence ratio,1 ± 0.013
TTAATTCATG,switch fluorescence ratio,1.01 ± 0.017
TAGCGGGTAC,switch fluorescence ratio,1.28 ± 0.087
CGGAATGCAG,switch fluorescence ratio,1.076 ± 0.0032
TTTCCCGTTT,switch fluorescence ratio,1.13 ± 0.095
TGCGGGCTAG,switch fluorescence ratio,1.01 ± 0.015
GAGGAGGGTA,switch fluorescence ratio,0.966 ± 0.086
AGCTTCGTCT,switch fluorescence ratio,1.04 ± 0.065
GGGCTGGATG,switch fluorescence ratio,0.9932 ± 0.0047
ATTAGTGTCG,switch fluorescence ratio,1.01 ± 0.046
TAGTAGGTAC,switch fluorescence ratio,1.04 ± 0.025
CGTGGTTATG,switch fluorescence ratio,0.975 ± 0.06
TGAGCTTAGA,switch fluorescence ratio,1.02 ± 0.054
CGTGGGGCGA,switch fluorescence ratio,1.03 ± 0.025
ATGATGTATG,switch fluorescence ratio,0.989 ± 0.027
GAAATTTAAG,switch fluorescence ratio,1.02 ± 0.035
CGATATTGGC,switch fluorescence ratio,0.985 ± 0.083
GTTTTTGTTA,switch fluorescence ratio,0.991 ± 0.036
GGGTCATTGA,switch fluorescence ratio,0.998 ± 0.024
GCCTTTTCGA,switch fluorescence ratio,0.9827 ± 0.0025
GGGCCAGTTG,switch fluorescence ratio,1.0149 ± 0.00024
TCTATTGTAA,switch fluorescence ratio,0.991 ± 0.049
TTCCGGTGTT,switch fluorescence ratio,1.05 ± 0.079
TTTACGAAAA,switch fluorescence ratio,1.12 ± 0.046
AGGGCGCGTG,switch fluorescence ratio,0.995 ± 0.05
GGTTTTAGGA,switch fluorescence ratio,0.987 ± 0.025
ATTCGGGAAG,switch fluorescence ratio,1.003 ± 0.0078
ATGATCAGTG,switch fluorescence ratio,0.98 ± 0.056
TGGGGACCGG,switch fluorescence ratio,1.01 ± 0.027
AAGCTGGTTT,switch fluorescence ratio,0.982 ± 0.032
CTTTTAAGGC,switch fluorescence ratio,1.1 ± 0.15
AGTTGGACGC,switch fluorescence ratio,1.07 ± 0.021
TCCCTTAGAG,switch fluorescence ratio,1.037 ± 0.0024
CTGGACATGT,switch fluorescence ratio,0.97556 ± 7.2e-05
AAGAAGGACG,switch fluorescence ratio,1 ± 0.033
CAGCCGTTTC,switch fluorescence ratio,1.03 ± 0.033
GAGCGAATAG,switch fluorescence ratio,1.46 ± 0.055
CCTTGTACTG,switch fluorescence ratio,1.07 ± 0.042
GGGGTTGAAA,switch fluorescence ratio,0.973 ± 0.083
TTAAAGAGCT,switch fluorescence ratio,1.014 ± 0.0028
GGGAATTTTC,switch fluorescence ratio,1.004 ± 0.0074
ACGGGGGTTA,switch fluorescence ratio,1.02 ± 0.024
ATAGCACGTT,switch fluorescence ratio,1.03 ± 0.025
TTGAATGCCG,switch fluorescence ratio,1.04 ± 0.035
TGTACTATGG,switch fluorescence ratio,1.01 ± 0.04
GTAACTCGAA,switch fluorescence ratio,0.98231 ± 0.00092
GGGAAGTTCA,switch fluorescence ratio,1 ± 0.029
GCTTTTCGTA,switch fluorescence ratio,0.9995 ± 0.0064
AACGAGTCGT,switch fluorescence ratio,0.989 ± 0.029
GAGCGGGTAC,switch fluorescence ratio,1.41 ± 0.03
TTCGGATAAA,switch fluorescence ratio,1.01 ± 0.058
CGAAATGGCG,switch fluorescence ratio,1.053 ± 0.0038
AGCGGTTCAC,switch fluorescence ratio,1.018 ± 0.0029
CCATGTATAA,switch fluorescence ratio,1.02 ± 0.016
GCCGTAAGGA,switch fluorescence ratio,1.06 ± 0.033
TGGCCTAACT,switch fluorescence ratio,1.02 ± 0.042
